Test results taken from article PMC5148603.
Blank lines part the entries; values can stand above or below the molecule they belong to.

Legend:
[1] = molecular target: T1, bovine lipoprotein lipase (bovine) (UniProt P11151); conditions: scale: molecules of LPL per ANGPTL4 molecule per min
T1 sequence: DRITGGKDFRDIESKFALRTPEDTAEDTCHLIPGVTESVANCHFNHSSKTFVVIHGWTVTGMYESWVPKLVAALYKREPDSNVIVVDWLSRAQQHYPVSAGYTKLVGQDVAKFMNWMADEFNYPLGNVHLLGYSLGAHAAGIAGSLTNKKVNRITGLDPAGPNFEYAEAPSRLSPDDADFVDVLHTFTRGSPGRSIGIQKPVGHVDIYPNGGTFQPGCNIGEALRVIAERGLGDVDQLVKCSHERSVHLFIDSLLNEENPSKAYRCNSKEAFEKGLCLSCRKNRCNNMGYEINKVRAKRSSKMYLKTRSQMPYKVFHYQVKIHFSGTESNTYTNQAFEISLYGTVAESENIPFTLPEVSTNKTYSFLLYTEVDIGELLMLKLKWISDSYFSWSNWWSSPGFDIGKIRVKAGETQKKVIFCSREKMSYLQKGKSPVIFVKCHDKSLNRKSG

[2] = molecular target: coiled-coil domain of wild-type human ANGPTL4 (residues 1–159) (human); test: SDS-PAGE before and after reduction (disulfide-linked oligomers); Coomassie blue-stained gel of purified ANGPTL4 1–159 before and after reduction and alkylation; optical scanning of lanes of two-fold serial dilutions
[3] = molecular target: T1, bovine lipoprotein lipase (bovine); conditions: scale: molecules LPL per ANGPTL4 molecule per min

- catalytic efficacy of unfolding of LPL's hydrolase domain (pulse-labelling HDX-MS, bimodality of peptide 131–165); 10 µM LPL with 0.25, 0.5 and 1 µM ANGPTL4 1–159, 25°C, early time points [1]: 1.6
- percent of the total protein that is covalent (disulfide-linked) dimer [2]: 10%
- stoichiometry N [2]: 2
Molecule: coiled-coil domain of wild-type human ANGPTL4 (residues 1–159) (domain or fragment)

- catalytic efficacy of unfolding of LPL's hydrolase domain (pulse-labelling HDX-MS, peptide 131–165); 10 µM LPL with 0.5, 1 and 2 µM ANGPTL4 1–159/E15K, 25°C, linear phases of the progress curves [3]: 0.6
B1: coiled-coil domain of human ANGPTL4 E15K (residues 1–159) (domain or fragment)
chain: MGPVQSKSPRFASWDKMNVLAHGLLQLGQGLREHAERTRSQLSALERRLSACGSACQGTEGSTDLPLAPESRVDPEVLHSLQTQLKAQNSRIQQLFHKVAQQQRHLEKQHLRIQHLQSQFGLLDHKHLDHEVAKPARRKRLPEMAQPVDPAHNVSRLHRL
